The target of one series is T1, HA-tagged wild-type Nod2 (human, UniProt Q9HC29 1-1040).
T1 construct: Expressed by transfection in HEK293T cells and tested in cell lysates; also called wt Nod2; pcDNA3-Nod2-HA; not shown: HA tag
As to the kind of experiment: co-immunoprecipitation from co-transfected HEK293T cells. The source says:
The CARD motif functions as an effector domain that mediates specific homophilic interaction with downstream CARD-containing molecules (Hofmann et al., Trends Biochem. Sci. 22: 155-156 [1997]).

Series [1] concerns the molecule itself. As to the kind of experiment: not described ('our observations').

B1: procaspase-9 (enzyme, UniProt P55211 1-416, looked up)
chain: MDEADRRLLRRCRLRLVEELQVDQLWDALLSRELFRPHMIEDIQRAGSGSRRDQARQLIIDLETRGSQALPLFISCLEDTGQDMLASFLRTNRQAAKLSKPTLENLTPVVLRPEIRKPEVLRPETPRPVDIGSGGFGDVGALESLRGNADLAYILSMEPCGHCLIINNVNFCRESGLRTRTGSNIDCEKLRRRFSSLHFMVEVKGDLTAKKMVLALLELAQQDHGALDCCVVVILSHGCQASHLQFPGAVYGTDGCPVSVEKIVNIFNGTSCPSLGGKPKLFFIQACGGEQKDHGFEVASTSPEDESPGSNPEPDATPFQEGLRTFDQLDAISSLPTPSDIFVSYSTFPGFVSWRDPKSGSWYVETLDDIFEQWAHSEDLQSLLLRVANAVSVKGIYKQMPGCFNFLRKKLFFKTS
notes: Construct and tag not described
For the molecule B1, the binding result with HA-tagged wild-type Nod2 is recorded as “no binding”.

B2: Bcl-10 (other, UniProt O95999 1-233, looked up)
chain: MEPTAPSLTEEDLTEVKKDALENLRVYLCEKIIAERHFDHLRAKKILSREDTEEISCRTSSRKRAGKLLDYLQENPKGLDTLVESIRREKTQNFLIQKITDEVLKLRNIKLEHLKGLKCSSCEPFPDGATNNLSRSNSDESNFSEKLRASTVMYHPEGESSTTPFFSTNSSLNLPVLEVGRTENTIFSSTTLPRPGDPGAPPLPPDLQLEEEGTCANSSEMFLPLRSRTVSRQ
notes: as for B1
Regarding B2, in the series with HA-tagged wild-type Nod2, the binding result is “no binding”.

B3: Nod2 lacking the LRRs (Nod2 1-744) (other)
chain: MGEEGGSASHDEEERASVLLGHSPGCEMCSQEAFQAQRSQLVELLVSGSLEGFESVLDWLLSWEVLSWEDYEGFHLLGQPLSHLARRLLDTVWNKGTWACQKLIAAAQEAQADSQSPKLHGCWDPHSLHPARDLQSHRPAIVRRLHSHVENMLDLAWERGFVSQYECDEIRLPIFTPSQRARRLLDLATVKANGLAAFLLQHVQELPVPLALPLEAATCKKYMAKLRTTVSAQSRFLSTYDGAETLCLEDIYTENVLEVWADVGMAGPPQKSPATLGLEELFSTPGHLNDDADTVLVVGEAGSGKSTLLQRLHLLWAAGQDFQEFLFVFPFSCRQLQCMAKPLSVRTLLFEHCCWPDVGQEDIFQLLLDHPDRVLLTFDGFDEFKFRFTDRERHCSPTDPTSVQTLLFNLLQGNLLKNARKVVTSRPAAVSAFLRKYIRTEFNLKGFSEQGIELYLRKRHHEPGVADRLIRLLQETSALHGLCHLPVFSWMVSKCHQELLLQEGGSPKTTTDMYLLILQHFLLHATPPDSASQGLGPSLLRGRLPTLLHLGRLALWGLGMCCYVFSAQQLQAAQVSPDDISLGFLVRAKGVVPGSTAPLEFLHITFQCFFAAFYLALSADVPPALLRHLFNCGRPGNSPMARLLPTMCIQASEGKDSSVAALLQKAEPHNLQITAAFLAGLLSREHWGLLAECQTSEKALLRHQACARWCLARSLRKHFHSIPPAAPGEAKSVHAMPGFIWLIR
notes: also called Nod2ΔLRR
Take B3: the binding result in series [1] was “binds”.
